Reference: publication PMC6138732
One block for each substance: values may come before it.

Tests used:
Experiment in all cases: SEC; Protein A affinity, then S200 size exclusion to purify the hexamer fraction; analytical HPLC; hexamer counts Fc units
[1] = biological target: IgG4 Fc hexamer (L309C) (human)
[2] = biological target: IgG1 Fc hexamer (L309C) (human)
[3] = biological target: IgG1 Fc hexamer (L309) (human)
[4] = biological target: IgG4 Fc hexamer (L309) (human)

- stoichiometry N [1]: 6
Substance: IgG4 Fc hexamer (L309C)

- stoichiometry N [2]: 6
Substance: IgG1 Fc hexamer (L309C)

- stoichiometry N [3]: 6
Substance: IgG1 Fc hexamer (L309)

- stoichiometry N [4]: 6
Substance: IgG4 Fc hexamer (L309)
